Target: Cry1Ab receptor proteins in brush border membrane vesicle (BBMV) preparations from the midgut of Heliothis zea larvae
Experiment: homologous competition with 0.25 nM ^125I Cry1Ab on H. zea BBMV (0.10 mg protein/ml)

**Q.** Which IC50 does the source give for “Cry1Ab core toxin (trypsin truncated Cry1Ab)” here?
**A.** The IC50 was 2 nM.
